Laboratory results reported in patent US6469153 (TRUSTEES OF COLUMBIA UNIVERSITY IN THE CITY OF NEW YORK, dated 2002).
Where two headings read alike, the source gives them in different places.

Assays:
[1] = target: Envelope protein (TM) on amphotropic N2 virus (amphotropic murine retrovirus); test: cell-based or functional assay
[2] = target: Envelope protein (TM) on amphotropic N2 virus (amphotropic murine retrovirus); test: cell-based or functional assay; remark: listed apart in the source
[3] = target: Envelope protein (TM in the context of the whole envelope protein) on intact ecotropic N2 virus (Moloney murine leukemia virus) (UniProt P03385); test: cell-based or functional assay
[4] = target: T1, Envelope protein (TM in the context of the whole envelope protein) on intact ecotropic N2 virus (Moloney murine leukemia virus, UniProt P03385 34-649, limits assumed); test: cell-based or functional assay
T1 sequence (looked up): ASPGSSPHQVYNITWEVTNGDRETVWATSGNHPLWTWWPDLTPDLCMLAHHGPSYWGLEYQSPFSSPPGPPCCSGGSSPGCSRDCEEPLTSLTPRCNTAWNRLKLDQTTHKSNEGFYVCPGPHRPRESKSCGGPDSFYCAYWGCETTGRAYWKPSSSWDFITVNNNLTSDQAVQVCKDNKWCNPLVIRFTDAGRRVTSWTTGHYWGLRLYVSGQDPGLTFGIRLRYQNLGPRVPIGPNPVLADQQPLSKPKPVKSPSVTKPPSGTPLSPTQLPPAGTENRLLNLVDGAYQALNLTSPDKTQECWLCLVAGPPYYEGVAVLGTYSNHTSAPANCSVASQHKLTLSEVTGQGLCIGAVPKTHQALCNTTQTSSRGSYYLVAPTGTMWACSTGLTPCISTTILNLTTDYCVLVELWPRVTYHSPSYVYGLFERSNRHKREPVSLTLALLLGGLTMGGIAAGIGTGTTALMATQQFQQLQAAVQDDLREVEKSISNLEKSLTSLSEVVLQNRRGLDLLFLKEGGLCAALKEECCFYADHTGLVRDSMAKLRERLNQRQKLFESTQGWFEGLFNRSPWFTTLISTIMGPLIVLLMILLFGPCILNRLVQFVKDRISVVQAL

[5] = target: T1, Envelope protein (TM in the context of …); test: depletion of N2 virus by GST-EIP-1 beads; titer of remaining virus
Method: EIP-1 to EIP-5 have been examined using this assay to directly measure the binding of EIPs to the intact virus. In this binding assay, virus is mixed with GST-EIP-agarose beads and incubated for 2 hours. After incubation, the mixtures are centrifuged, and the supernatants are used to transduce fresh NIH3T3 cells. After two days, cells are split into G418-containing medium. Ten to twelve days later, colonies are counted. If the virus binds to EIPs, virus is retained on agarose beads leading to a reduction in virus titer in supernatant. […] In control samples, virus was incubated with GST-agarose beads or beads alone, and no change in virus titer was observed (Table 2).
Whether EIP-1 could interact with TM on the native virion particle was tested. GST-EIP-1 beads were incubated with preparations of a virus vector (N2) containing the neoR gene and pelleted, and the titer of the remaining virus was determined to test for depletion of infectivity from the stock. Whereas beads alone, beads containing GST, or beads with control GST fusions had no effect on the titer, beads with GST-EIP-1 could consistently reduce the titer approximately 4-fold.

For GST-EIP-1 (from UniProt Q9JI44 1-468), the increase of titer of amphotropic viruses titered on human cells [1] was 5 to 8 fold.

GST-EIP-1A (from UniProt Q9JI44 1-468) gave a Fold Increase (amphotropic N2 virus on NIH3T3 cells) [1] of 7 fold, a Neo^r Colonies, 1:1 (amphotropic N2 virus on NIH3T3 cells) [1] of 854 colonies and a Neo^r Colonies, 1:5 (amphotropic N2 virus on NIH3T3 cells) [1] of 136 colonies. It also gave a Fold Increase (amphotropic N2 virus on NIH3T3 cells) [2] of 8 fold, a Neo^r Colonies, Amphotropic N2 virus 5 µl (1:10), NIH3T3 cells [2] of 854 colonies and a Neo^r Colonies, Amphotropic N2 virus 5 µl (1:25), NIH3T3 cells [2] of 136 colonies.

Work on GST-EIP-1B (from UniProt Q9JI44 1-468) yielded a Fold Increase (ecotropic N2 virus on NIH3T3 cells) [3] of 30 fold, a Neo^r Colonies, 1:1 (ecotropic N2 virus on NIH3T3 cells) [3] greater than 1000 colonies and a Neo^r Colonies, 1:5 (ecotropic N2 virus on NIH3T3 cells) [3] of 353 colonies. For the same molecule, the Fold Increase (amphotropic N2 virus on Hela cells) [1] was 6 fold, the Fold Increase (amphotropic N2 virus on NIH3T3 cells) [1] was 5 fold and the Neo^r Colonies, 1:1 (amphotropic N2 virus on NIH3T3 cells) [1] was 403 colonies. It also gave a Neo^r Colonies, 1:5 (amphotropic N2 virus on NIH3T3 cells) [1] of 102 colonies, a Neo^r Colonies, Amphotropic N2 virus 5 µl (1:25), Hela cells [1] of 594 colonies and a Fold Increase (amphotropic N2 virus on NIH3T3 cells) [2] of 6 fold. The Neo^r Colonies, Amphotropic N2 virus 5 µl (1:10), NIH3T3 cells [2] was 403 colonies and the Neo^r Colonies, Amphotropic N2 virus 5 µl (1:25), NIH3T3 cells [2] was 102 colonies.

In the case of GST-EIP-2 (from UniProt P08515 1-218), the CFU/2 ul virus (Neo^r colonies after incubation of virus with purified protein, 1 µg/ml, 37° C., 1 h) [3] is reported as 24 CFU, the CFU/10 ul virus (Neo^r colonies after incubation of virus with purified protein, 1 µg/ml, 37° C., 1 h) [3] is reported as 69 CFU and the Fold Increase (ecotropic N2 virus on NIH3T3 cells) [3] is reported as 1 fold. For the same molecule, the Neo^r Colonies, 1:1 (ecotropic N2 virus on NIH3T3 cells) [3] was 69 colonies, the Neo^r Colonies, 1:5 (ecotropic N2 virus on NIH3T3 cells) [3] was 24 colonies and the Ratio (enhancement of virus infectivity) [3] was 1.

B1: GST-EIP-1 (other)
chain: MATGADVRDILELGGPEGDAASGTISKKDIINPDKKKSKKSSETLTFKRPEGMHREVYALLYSDKKDAPPLLPSDTGRGHRTVKAKLGSKKVRPWKWMPFTNPARKDGAMFFHWRRAAEEGKDYPFARFNKTVQVPVYSEQEYQLYLHDDAWTKAETDHLFDLSRRFDLRFVVIHDRYDHQQFKKRSVEDLKERYYHICAKLANVRAVPGTDLKIPVFDAGHERRRKEQLERLYNRTPEQVAEEEYLLQELRKIEARKKEEKRSQDLQKLITAADTTAEQRRTERKAPKKKLPQKKEAEKPAVPETAGIKFPDFKSAGVTLRSQRMKLPSSVGQKKIKALEQMLLELGVELSPTPTEELVHMFNELRSDLVLLYELKQACANCEYELQMLRHRHEALARAGVLGAPAAAAVGPTPASAEPTVSESGLGLDPTKDTIIDVVGAPLTPNSRKRRESASSSSSVKKAKKP
notes: It was used on glutathione agarose beads or eluted as soluble protein; also called EIP-1 fused with glutathione S-transferase; not shown: glutathione S-transferase (GST)
With B1 the “Ratio (enhancement of virus infectivity)” value [4] was 30 ratio and the “fold reduction of the titer of remaining virus” value [5] was roughly 4 fold.
